Tests used:
[1] = target: Ago1 (RISC) (UniProt A1Z9J5); experiment: RBNS; conditions: RBNS: 20 mM HEPES-KOH pH 7.9, 100 mM KOAc, 3.5 mM Mg(OAc)2, 0.05% CHAPS, 2 mM DTT, 8% glycerol, BSA, tRNA, 25 C, 2 h, filter binding: 25 mM HEPES-KOH pH 7.9 …
[2] = target: T1, PUM2 (Homo sapiens) (UniProt Q8TB72); experiment: RBNS; conditions: re-analysis of published RBNS data (ref 38); RBNS: 20 mM HEPES-KOH pH 7.9, 100 mM KOAc, 3.5 mM Mg(OAc)2, 0.05% CHAPS, 2 mM DTT, 8% glycerol, BSA, tRNA, 25 C, 2 h; filter binding: 25 mM HEPES-KOH pH 7.9 …
T1 sequence: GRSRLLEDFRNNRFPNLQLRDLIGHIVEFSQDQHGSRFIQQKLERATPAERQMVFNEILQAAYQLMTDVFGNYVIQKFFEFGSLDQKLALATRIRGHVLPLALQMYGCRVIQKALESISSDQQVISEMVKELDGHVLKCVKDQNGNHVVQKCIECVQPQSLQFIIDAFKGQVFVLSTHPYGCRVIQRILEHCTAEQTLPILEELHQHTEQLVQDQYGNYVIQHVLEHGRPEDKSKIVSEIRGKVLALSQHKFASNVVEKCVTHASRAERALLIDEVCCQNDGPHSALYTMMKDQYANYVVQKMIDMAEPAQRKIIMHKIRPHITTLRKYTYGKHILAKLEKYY

[3] = target: Ago1 (RISC) (UniProt A1Z9J5); experiment: double-filter binding; conditions: let-7 guide, RBNS: 20 mM HEPES-KOH pH 7.9, 100 mM KOAc, 3.5 mM Mg(OAc)2, 0.05% CHAPS, 2 mM DTT, 8% glycerol, BSA, tRNA, 25 C, 2 h, filter binding: 25 mM HEPES-KOH pH 7.9 …

Chain of Ago1 (RISC) (A1Z9J5 entry or part of it): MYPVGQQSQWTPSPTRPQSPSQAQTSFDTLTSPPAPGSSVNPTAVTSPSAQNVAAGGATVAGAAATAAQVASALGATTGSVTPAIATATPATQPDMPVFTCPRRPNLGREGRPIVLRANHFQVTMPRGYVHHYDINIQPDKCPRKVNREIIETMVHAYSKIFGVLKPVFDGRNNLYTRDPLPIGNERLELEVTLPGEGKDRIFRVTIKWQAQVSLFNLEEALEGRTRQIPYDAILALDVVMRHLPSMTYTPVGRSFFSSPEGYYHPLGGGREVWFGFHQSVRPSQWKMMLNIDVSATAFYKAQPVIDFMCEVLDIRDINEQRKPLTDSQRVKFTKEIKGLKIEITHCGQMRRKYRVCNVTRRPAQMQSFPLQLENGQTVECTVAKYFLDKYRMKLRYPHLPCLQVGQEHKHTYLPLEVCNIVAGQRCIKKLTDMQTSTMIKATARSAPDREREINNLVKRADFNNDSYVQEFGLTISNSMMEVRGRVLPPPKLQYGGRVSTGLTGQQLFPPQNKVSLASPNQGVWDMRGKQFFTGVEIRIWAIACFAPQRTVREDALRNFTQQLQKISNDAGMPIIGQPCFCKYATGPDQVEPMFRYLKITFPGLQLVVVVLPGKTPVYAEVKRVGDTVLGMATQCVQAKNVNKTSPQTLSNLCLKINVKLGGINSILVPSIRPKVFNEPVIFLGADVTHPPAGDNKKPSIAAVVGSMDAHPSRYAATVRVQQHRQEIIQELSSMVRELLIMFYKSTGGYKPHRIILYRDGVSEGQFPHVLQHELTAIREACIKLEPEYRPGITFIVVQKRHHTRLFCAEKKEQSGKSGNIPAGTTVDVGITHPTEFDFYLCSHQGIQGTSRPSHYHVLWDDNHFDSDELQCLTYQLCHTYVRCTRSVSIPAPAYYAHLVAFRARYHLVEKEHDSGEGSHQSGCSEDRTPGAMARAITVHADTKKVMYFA

CUACCUUB / UGAGGUAGUAGGUUGUAUAGU [let-7 / 7mer-m8,w2]
Kd ([1]; let-7 guide): 0.278 nM

UCCGUCUB / UGGACGGAGAACUGAUAAGGGC [miR-184 / 7mer-m8,w2]
Kd ([1]; miR-184 guide): 0.154 nM

UGAUCUUB / UGAGAUCAUUUUGAAAGCUGAUU [bantam / 7mer-m8,w2]
Kd ([1]; bantam guide): 0.866 nM

UGUAUAUA [PUM consensus site]
Kd [2]: 0.12 nM

let-7 guide / fully complementary target (Fig 1c)
Kd [3]: 0.002 nM

let-7 guide / seed-matching target (Fig 1c)
Kd ([3]; 5' 32P target): 0.005 nM

Reference: article PMC12905440
